Measured values published in the nanobody polyreactivity screen of Harvey et al. (2022).

Test: yeast display, Sf9 membrane polyspecificity reagent, FACS + sequencing; frameworks hold sequencing errors
Procedure, shortened: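 Genes from sorted yeast were amplified by colony PCR, read by MiSeq 2 × 250 sequencing and filtered on CDR length. These cells carried a synthetic nanobody library in Saccharomyces cerevisiae BJ5465 and were sorted by FACS into low and high (top ~1%) gates on anti-HA and streptavidin fluorescence. Polyreactivity is labelled according to the gate of origin.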

Row | Sequence | polyreactivity (PSR sort gate)
1 | QVQLVESGGGLVQAGGSLRLSCAASGFIFSGYTMGWYRQAPGKERELVAAITKRGGRTYYADSVKGRFTISRDNAKNTVYLQMNSLKPEDTAVYYCNVDVKVYSDETTDGDYWGQGTQVTVSS | high polyreactivity
2 | QVQLVESGGGLVQAGGSLRLSCAASGSIFPSNVMGSYRQAPGKERELVAAISNTGSTNYADSVKGRFTISRDNAKNTVYLQMNSLKPEDTAVYYCNADASYGFWSLLDYDYWGQGTQVTVSS | low polyreactivity
3 | QVQLVESGGGLVQAGGSLRLSCATYAMGWSRQAPGKERELVASIRSGSTYYADSVKGRFTISRDNAKNTVYLQMNSLKPEDTAVYYCAAYEIYYEFDSWGQGTQVTVSS | low polyreactivity
4 | QVQLVESGGGLVQAGGSLRLSCAASGSTFAVYTMGWYRQAPGKEREMSTSYADSVKGRFTISRDNAKNTVYLQMTCLKPEDTAVYYCNRDFYEFDSNSYRFDYWGQGTQVTVSS | low polyreactivity
5 | QVQLVESGGGIVQAGGSLRLSCAASGRSFYRYARGWDRQAPGKERELVASITRSGITHYADSVKGRFTISRDNAKNPVYLQMISLKPEDTAVYYCNGRRGSPAPYDYWGQGTQVTVSS | high polyreactivity
6 | QVQLEESGGGLVQAGGSLRLSCAASGLIFIYNTMGWYRQAPGKERQLVAAISGRGGSTYYADSVKGRFTISRDNAKNSVYLQMNSLKPEDTAVYYCAAQDTYHSYGLYSWGQGTQVTVSS | low polyreactivity
7 | QVQLVESGGGLVQAGGSLRLTCAASGSTDPYAMGWYRQAPGKERELVARIRYSGGSTYYADSVKGRCTISRDNAKNTVYFQMTSLKPEDTAVYYCAAQSYTYYHHYGYWGQGTQVTVSS | high polyreactivity
8 | QVHLVESGGGLVQAGGSLRLSCAASGITFRYYAMGWYRQAPGKERELVAVISTSGGSTYYADSVKGRFTISRDNAKNTVYLQMNSLKPEDTAVYYCAVVWPYSERYYYWGQGTQVTVSS | high polyreactivity
9 | QVQLVESCGGLDQAGGSLRLSCAASGFMFHLYGMGWYRQAPGKEMEWVAAISSGGRTYYADSVKGRFTISRDNAKNTVYLQMNSLKPEDTAVYYCAVYVAYLYSYYYWGQGTQETVSS | low polyreactivity
10 | QVQLVESGGGLVQAGGSLRLSCAASGRTFYGNAMGWYRQAPGNERELVAAITTGGGNTYYADSVKGRFTISRDNAKNTVYLQMNSLKPDDTAVYYCAAYERKFYTVSRWYKLDYWGQGTQVTVSS | high polyreactivity
11 | QVQLVESGGGLVQAGGSLRLSCAASGGIFTYYTMGWYRQAPGKERELVAAISRRVGRTYYADSVKGRFTISRDKANNTVYLQMNSLKPEDTAVYYCNADSRRRLFDYWGQGTQVTVSS | high polyreactivity
12 | QVQLVESGVCLVQAGGSLRLSCAASGSTITYNAMGWYRQAPGKERELVASISSGTTTYYADSVKGRFTISRDNAKNTVYLQMNSLHTEDTAVYYCAVDSCSRVQGWLAHNYDYWGQGTQVTVSS | low polyreactivity
13 | QVQLVESGGGLVQAGGSLRLSCAASGFSFARNAMGWYRQAPGKERELVAAISDSGGRTYYADSVKGRFTISRDIAKNTVYLQMNSLKPEDTAVYYCAAALTFRMDYWGQGTQVTVSS | high polyreactivity
14 | QDQLVESGGGLVQAGGSLRLSCAASGSNFAVYAMGWSRQAPGKERELVAAISYRGARTYYADSVKGRFTISRDNAKNTVYLQMNSLKPEDTAVYYCAAQGVTSPGVDSWGQGTQVTVSS | high polyreactivity
15 | QVQLVESGGGLVQAGGSLRLSCAASGFIFYRYAMGWYRQAPGKERELVAAITGGGSTYYADSVKGRFTISRDNAKNTVYLQMNSLKPEDTAVYYCNAVTYGWTAYDKGKRYDYWGQGTQVTVSS | high polyreactivity
16 | QVQLVETGGGLVQAGGSLRLSSAASGIIFKTYAMGWYRQARGKERELLAGIDYSGGGTSYADSVKGRFTISRDNAKNTVYLQMNSLKPEDTAVYYCNAEWWSWGSDSYTYDYPETYDYRGQGTQVTVSS | low polyreactivity

Row | Sequence | polyreactivity (PSR sort gate)
17 | QVQLVESGGGLVQAGGSLRLSCAASGSIFVVYGMGWYRQAPGKERELVAAISGGITNYADSVKGRFTISRDNAKNTVYLQMNSLKPEDTAVYYCATVDGAYQYTYDYWGQGTQVTVSS | low polyreactivity
18 | HVHLVESGGGLVQAGGSLRLSCAASGRTFSRYAMGWYRQAPGKERELVAAITSGGSTNYADSVKGRFTISRDNAKNTVYLQKNSLKPEDTAVYYCAKRYFRSSRDGLGTTHPYDYWGQGTQVTVSS | high polyreactivity
19 | QVQLVESGGGLVQAGGSLRLSCAASGSIFDYNAMGWYRQAPGKERELVAAITSTDSTYADSVKGRFTISRDNAKNTVYLQMNSLKPEDTAVYYCAAEDVIYYLTGQWREYDYWGQGTQVTVSS | low polyreactivity
20 | QVQLVESGGGIVQAGGSLRLSCAASGIIFWDNAMGWYRQAPGKERELVASINYSGGSTYYADSVKGRFTISRDNAKNTVYLQMNSLKPEDTAVYYCAARTVTLDDWDYAYDYWGQGTQVTVSS | low polyreactivity
21 | QVQLVESGGGIVQAGGSLRISCAASGFIFSSYDMGWYRQAPGKERELVAAITWSGGSTYYADSVKARFTISRDNAKNTVYLHMNSLKPEDTAVYYCNAYPYYLVRNMDSWGQGTQVTVSS | high polyreactivity
22 | QVQLVESGGGLVQAGGSLRLSCAASGRIFWAYAMGWYRQAPGKERELVAVITIGGRTNYADSVKGRFTISRDNAKNTVYLQMNSLKPEDTAVYYCAAERHIITWPYSRYYYWGQGTQVTVSS | high polyreactivity
23 | QVQLVDSGGGLVQAGGSLRLSCPASGSTFLVYAMGWYRQAPGKERELVAVITYSTVRTYYADSVKGRFTISRDNAKNTVYLQMNSLKPEDTAVYHCNADKEFAVLGQGMDFWGQGTQVTVSS | low polyreactivity
24 | QVQLVESGGGLVQAGGSLRLSCAASGRIFYSNAMGWYRQAPGKERELVAANTSGGNTYYADSVKGRFTISRDNAKNTVYLLMNSLKPEDTAVYYCAADHYWRRSGFGYWGQGTQVTVSS | low polyreactivity
25 | QVQLVESGGGLDQAGGSLRLSCAASGSIFPINAMGWYRQAPGKEREFDAAISSRGGSTYYADSVKGRFTISRDNAKNTVYFQMNSLKPEDTAVYYCAKYASVGYGRYPYDYWGQGTQVTVSS | high polyreactivity
26 | QVQLVESGGGLVQAGGSLPLSCAASGFIYGGNAMGWYRQAPGKERELVAAISKSGGRTYYADSVKGRFTISRDNAKNTVYLQMNSLKPEDTAVYYCAAVPGRTAEDYGEDYWGQGTEVTVSS | high polyreactivity
27 | QVQLVESGGRLVQAGGSLRLSCAASGLIFADYTMGWYRQAPGKERELVAVITDGDSTYYADSVKGRFTISRDNAKNTVYLQMNSLKPEDTAVYYCAARSAILKSGYLMDYWGQGTQVTVSS | low polyreactivity
28 | QVQLVESGGGLVQAGGSLRLSCAASGFIFTDYAMGWYIQAPGKERELVAGISGSGGRTYYADSVKGRFTISRDNAKNTVYLQMNSLKPEDTAVYYCAARGVPWLWYFRGMYWGQGTQVTVSS | high polyreactivity
29 | QVQLVESGGGLVQAGGSHRLSCAASGSTFGDYAMGWYRQAPGKERELVAAISVRGGSTYYADSVKGRFTISRDNAKNTVYLQMNSLKPVVTAVYYCNKDLYRYPGYDYWGQGTQVTVSS | high polyreactivity
30 | QVQLVESGGGLVQAGGSLRLSCAASGFTFKYYAMGWYRQAPGKERELVATITRSGGNTYYADSVKGRFTISRDNAKNTVYLQMNSLKPEDTAVYYCNKGVRRSVYSRYDYWGQGTQVTVSS | high polyreactivity
31 | QVQLVESGGGLVQAGGSLRVSCAASGRIFPFYAMGWYRQAAGKERELVAAISWNGGSTFYADSVKGRFTSSRDNANNTVYLQMHRLKPEDNAVYYCNADFRPAYTYDYWGQGTQVTVSS | low polyreactivity
32 | QVQLVESGGGLVQAGGSLRLSCAASGRIFVGYAMGWSRQAPRNERELVAAISDRGGNTYYADSVKGRFTISRDNAKNTVYFQMNSLKPEDTAVYYCAKEVRWWYGYWGQGTQVTVSS | high polyreactivity
